Experimental data published in CN114480298A (MEGEE TRANSF MEDICAL RESEARCH SUZHOU CO LTD, dated 2022).

Legend:
[1] = target: T1, 人TIGIT (人体组织细胞膜上表达的TIGIT蛋白) (human, UniProt Q495A1 22-244); assay: immunohistochemistry on FFPE human tissue, primary antibody 3.5 μg/mL
T1 construct: whole, on cells
T1 sequence (looked up): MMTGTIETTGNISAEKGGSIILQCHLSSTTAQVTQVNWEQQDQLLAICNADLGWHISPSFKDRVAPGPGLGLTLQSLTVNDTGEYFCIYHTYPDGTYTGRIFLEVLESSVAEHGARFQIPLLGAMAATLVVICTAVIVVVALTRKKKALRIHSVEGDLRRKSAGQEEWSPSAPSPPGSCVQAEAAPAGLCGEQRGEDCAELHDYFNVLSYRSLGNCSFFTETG

TF-TIGIT融合蛋白 (原核表达) = target: T2, TF-TIGIT融合蛋白 (原核表达) (human (TIGIT part)); assay: Western blot, 0.2 μg antigen per lane, primary antibody 0.2 µg/mL
T2 construct: also called TF-TIGIT蛋白; 原核表达的TF-TIGIT蛋白
T2 chain: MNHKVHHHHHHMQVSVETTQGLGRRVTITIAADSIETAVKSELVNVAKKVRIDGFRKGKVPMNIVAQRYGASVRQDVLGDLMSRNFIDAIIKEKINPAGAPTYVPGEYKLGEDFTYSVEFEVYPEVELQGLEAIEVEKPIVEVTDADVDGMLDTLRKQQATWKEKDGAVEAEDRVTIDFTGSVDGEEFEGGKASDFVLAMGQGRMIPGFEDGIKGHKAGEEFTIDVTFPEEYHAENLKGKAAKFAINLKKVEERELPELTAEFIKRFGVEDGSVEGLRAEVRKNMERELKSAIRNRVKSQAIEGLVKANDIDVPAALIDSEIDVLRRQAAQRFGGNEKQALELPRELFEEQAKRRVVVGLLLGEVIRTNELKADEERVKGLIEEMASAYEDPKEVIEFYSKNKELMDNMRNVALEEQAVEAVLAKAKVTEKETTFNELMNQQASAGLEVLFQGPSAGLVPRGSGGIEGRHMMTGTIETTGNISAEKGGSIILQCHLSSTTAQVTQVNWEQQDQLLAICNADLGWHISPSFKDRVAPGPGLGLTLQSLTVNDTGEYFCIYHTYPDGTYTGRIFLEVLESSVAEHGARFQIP

B1: 抗TIGIT单克隆抗体MJ12-30 (antibody, mouse IgG1, kappa, V domains shown)
VH: EVKLEQSGGVLVQPGGSRKLSCAASGFTFHSFGMHWVRQAPEKGLEWVAYISSGGSTIFYADTVKGRFTISRDNPKNTLFLQMTSLRSEDTAMYYCAGSDHGNLGYWGQGTTLTVSS
VL: DIVLTQSPLSLSVSLGDQASISCRSSQSILHSGGNTYLDWFLQRPGQSPKLLIYKVSNRISGVPDRFSGSGAGTDFTLKISRVEAEDLGVYYCFQGNHVPPTFGGGTKLEIKR
notes: full chains used here; also called 鼠抗人TIGIT单克隆抗体杂交瘤细胞系MJ12-30 (CGMCC No.45102) 分泌的抗体
- binding result [1]: binds
- binding result (TF-TIGIT融合蛋白 (原核表达)): binds
